This is an account of results in article PMC3406685 (The Journal of Biological Chemistry, 2012).

In test [1] the target is triple-helical peptide II-27-B (II-27-derived sequence with GVOGEA within (GPP)5 hosts) (O in the letters is hydroxyproline). The test is described as follows: real-time label-free cell adhesion.
Test [2] addresses triple-helical peptide II-27-C (II-27-derived sequence with GVOGEA within (GPP)5 hosts) (O in the letters is hydroxyproline). The test is described as follows: real-time label-free cell adhesion.

B1: integrin α1β1 on rat pheochromocytoma PC12 cells (receptor, rat (endogenous in PC12))
chain 1: FNVDVKNSMSFSGPVEDMFGYTVQQYENEEGKWVLIGSPLVGQPKARTGDVYKCPVGRERAMPCVKLDLPVNTSIPNVTEIKENMTFGSTLVTNPNGGFLACGPLYAYRCGHLHYTTGICSDVSPTFQVVNSFAPVQECSTQLDIVIVLDGSNSIYPWESVIAFLNDLLKRMDIGPKQTQVGIVQYGENVTHEFNLNKYSSTEEVLVAANKIGRQGGLQTMTALGIDTARKEAFTEARGARRGVKKVMVIVTDGESHDNYRLKQVIQDCEDENIQRFSIAILGHYNRGNLSTEKFVEEIKSIASEPTEKHFFNVSDELALVTIVKALGERIFALEATADQSAASFEMEMSQTGFSAHYSQDWVMLGAVGAYDWNGTVVMQKANQMVIPHNTTFQTEPAKMNEPLASYLGYTVNSATIPGDVLYIAGQPRYNHTGQVVIYKMEDGNINILQTLGGEQIGSYFGSVLTTIDIDKDSYTDLLLVGAPMYMGTEKEEQGKVYVYAVNQTRFEYQMSLEPIRQTCCSSLKDNSCTKENKNEPCGARFGTAIAAVKDLNVDGFNDVVIGAPLEDDHAGAVYIYHGSGKTIREAYAQRIPSGGDGKTLKFFGQSIHGEMDLNGDGLTDVTIGGLGGAALFWARDVAVVKVTMNFEPNKVNIQKKNCRVEGKETVCINATMCFHVKLKSKEDSIYEADLQYRVTLDSLRQISRSFFSGTQERKIQRNITVRESECIRHSFYMLDKHDFQDSVRVTLDFNLTDPENGPVLDDALPNSVHEHIPFAKDCGNKERCISDLTLNVSTTEKSLLIVKSQHDKFNVSLTVKNKGDSAYNTRTVVQHSPNLIFSGIEEIQKDSCESNQNITCRVGYPFLRAGETVTFKIIFQFNTSHLSENAIIHLSATSDSEEPLESLNDNEVNISIPVKYEVGLQFYSSASEHHISVAANETIPEFINSTEDIGNEINVFYTIRKRGHFPMPELQLSISFPNLTADGYPVLYPIGWSSSDNVNCRPRSLEDPFGINSGKKMTISKSEVLKRGTIQDCSSTCGVATITCSLLPSDLSQVNVSLLLWKPTFIRAHFSSLNLTLRGELKSENSSLTLSSSNRKRELAIQISKDGLPGRVPLWVILLSAFAGLLLLMLLILALWKIGFFKRPLKKKMEK
chain 2: QTDKNRCLKANAKSCGECIQAGPNCGWCTNTTFLQEGMPTSARCDDLEALKKKGCHPSDIENPRGSQTIKKNKNVTNRSKGMAEKLRPEDITQIQPQQLLLKLRSGEPQKFTLKFKRAEDYPIDLYYLMDLSYSMKDDLENVKSLGTDLMNEMRRITSDFRIGFGSFVEKTVMPYISTTPAKLRNPCTSEQNCTSPFSYKNVLSLTDRGEFFNELVGQQRISGNLDSPEGGFDAIMQVAVCGSLIGWRNVTRLLVFSTDAGFHFAGDGKLGGIVLPNDGQCHLENNVYTMSHYYDYPSIAHLVQKLSENNIQTIFAVTEEFQPVYKELKNLIPKSAVGTLSGNSSNVIQLIIDAYNSLSSEVILENSKLPDGVTINYKSYCKNGVNGTGENGRKCSNISIGDEVQFEISITANKCPNKESENQLKLNPLGFTEEVEVVLQFICKCNCQSHGIPASPKCHEGNGTFECGACRCNEGRVGRHCECSTDEVNSEDMDAYCRKENSSEICSNNGECVCGQCVCRKRENTNEIYSGKFCECDNFNCDRSNGLICGGNGVCRCRVCECYPNYTGSACDCSLDTVPCVATNGQICNGRGICECGACKCTDPKFQGPTCETCQTCLGVCAEHKECVQCRAFNKGEKKDTCAQECSHFNLTKVESREKLPQPVQVDPVTHCKEKDIDDCWFYFTYSVNSKGEAHVHVVETPDCPTGPDIIPIVAGVVAGIVLIGLALLLIWKLLMIIHDRREFAKFEKEKMNAKWDTGENPIYKSAVTTVVNPKYEGK
For B1, the “adhesion relative to that on II-27” value in test [1] and in test [2] was around 40% each time.
